From patent US9340577B2, “HLA binding motifs and peptides and their uses” (priority 1992, dated 2016)
Read-outs that look alike come from different tables or passages of the source.

Biological target: A2.1 HLA molecules (Homo sapiens, UniProt P04439, D140Y/D185E/D98H/E176V/E277Q/G131W/G231S/I119V/I121R/I166T/I218V/L300P/L318F/N151K/N90K/P208A/P217A/Q86G/Q94H/R138H/R169H/T345S)
Format: binding
Design: A*0201 / A2.1 Binding / A2 Bind. / A2 / A2.1 (binding capacity): scale not given here

Sequence	A2 Bind.	other results
SMLSPFLPLV	0.9700	
VTTEVAFGL	0.0360	
DMLGRVFFV	0.0110	A2.1 Binding: 0.011
RLLLTSLFFL		A2.1 Binding: 0.34
LMDLLMFST	0.0460	
TLNIVRDHV		A2.1 Binding: 0.0005
YLPSALNPV	0.3200	
RLGRNSFEV	0.0190	
LMCRYTPRL		A2.1 Binding: 0.0055
MLNVMKEAV		A2.1 Binding: 0.0039
LLGRRSFEV	0.0540	
TLATWVGVNL	0.5700	
RLLRGLIRL	0.0370	
AMLTACVEV	0.1000	A2.1 Binding: 0.089
DLKQMERVV		A2.1 Binding: 0
AMGLVCVQV		A2.1 relative binding (ratio of binding of test peptide relative to standard peptide): 0.012
ILGLLGFAV [listing 1 of 2 here]		A2.1 relative binding (ratio of binding of test peptide relative to standard peptide): 0.060
KLWVTVYYGV	0.0150	
YLYGVGSAV	0.1600	
NISGYNFSL	0.0280	
ALISFLLLA	0.2200	
CLFHIVNLI	0.2100	

Sequence	A2 Bind.	other results
MMWFVVLTV	0.7600	A2.1 Binding: 0.76
SLYNTISVL [Peptide F136.03]		A*0201: 0.0190
SMHCKPEEV		A2.1 relative binding (ratio of binding of test peptide relative to standard peptide): 0.018
YLYRLNFCL	0.7200	A2.1 Binding: 0.72
MVTTTNPLI	0.0150	
KLVALGINAV [Peptide F127.07]		A*0201 (Table 152, binding value, unit not given): 0.0700
LMLGTLEEV		A2.1 relative binding (ratio of binding of test peptide relative to standard peptide): 0.13
LLGDNQIMV		A2.1 relative binding (ratio of binding of test peptide relative to standard peptide): 0.043
ILGLLGFAV [listing 2 of 2 here]	0.0600	
GLCQVFADV	0.0300	
ELKQTRVNL		A2.1 Binding: 0
SLISDQLLM	0.0540	
FMQTYLVTL		A2.1 Binding: 0.68
RLCCQLDPA	0.0290	
LLLCRLPFL	0.4200	A2.1 Binding: 0.42
LLTEVETYVL	0.0130	
ALMDLLMFS	0.4300	
YMLDLQPET	1.4000	A2.1 relative binding (ratio of binding of test peptide relative to standard peptide): 1.4
ALSLIVNLL	0.0470	
LLVPFVQWFA	0.2600	
YMLDLQPEV		A2.1 relative binding (ratio of binding of test peptide relative to standard peptide): 1.9
GLRQLKGAL		A2.1 Binding: 0.0001

Sequence	A2 Bind.	other results
ALPPASPSA	0.0710	
GLWCVLFFV	0.4700	A2.1 Binding: 0.47
ILGFVFTLT	0.2600	
FLGLSPTVWV	0.0300	
YLHTLWKAGV	0.1500	A2: 0.1300
WLKLLRDAL		A2.1 Binding: 0
QLFHLCLII	0.0390	
LLPFVQWFV	0.6500	
LLFFWLDRSV	0.6000	
SISGVLWQV [Peptide F124.09]		A*0201: 0.1400
LMPPPVAEL		A2.1 Binding: 0.0066
LLCPAGHAV [Peptide F127.06]		A*0201: 0.0140
RMTGGVFLV	0.1500	
RMRGTFSAPL	0.0110	
NLWVTVYYGV	0.0160	
LLWFHISCLI	0.0130	
SLMAFTASV [Peptide F124.10]		A*0201: 0.1200
RMLTIPQSV		A2.1 relative binding (ratio of binding of test peptide relative to standard peptide): 0.058
ILCWGELMTL	0.1900	
WLVTNGSYL	0.0180	
